This note sets out measurements from article PMC9680610.

Common to all, as to assay: mass photometry
Assay [1] addresses SARS-CoV-2 spike, wild-type (Wuhan-hu-1 strain), HexaPro stabilised (K986P, V987P, F817P, A892P, A89 (SARS-CoV-2 (Wuhan-hu-1 strain)) (UniProt P0DTC2)).
The target in assay [2] is SARS-CoV-2 spike, Omicron (B.1.1.529 strain), 2P stabilised (SARS-CoV-2 (Omicron B.1.1.529 strain)) (UniProt P0DTC2).
In assay [3] the target is SARS-CoV-2 spike, Omicron (B.1.1.529 strain), HexaPro stabilised (SARS-CoV-2 (Omicron B.1.1.529 strain)) (UniProt P0DTC2).
Assay [4] addresses SARS-CoV-2 spike, wild-type (Wuhan-hu-1 strain), 2P stabilised (K986P, V987P), soluble recombinant (SARS-CoV-2 (Wuhan-hu-1 strain)) (UniProt P0DTC2).

On to “SARS-CoV-2 spike, wild-type (Wuhan-hu-1 strain), HexaPro stabilised (K986P, V987P, F817P, A892P, A89 (from UniProt P0DTC2 14-1208) (natural protein)”, for which the percent of spike counts that are trimer in assay [1] came to 90%.

As a reminder, the stoichiometry N is a count of units in the complex or per binding partner. Turning to “angiotensin-converting enzyme-2 (ACE2) with the neck domain (from UniProt Q9BYF1 18-740) (receptor)”, the stoichiometry N in assay [2], in assay [3], in assay [4] and in assay [1] was under 3 each time. Also, the percent of spike with one ACE2 bound in assay [4] came out at 42%. The percent of spike with two ACE2 bound in assay [4] was determined as 8%; in assay [1], 7%.

With “angiotensin-converting enzyme-2 (ACE2) without the neck domain (from UniProt Q9BYF1 18-740) (receptor)”, the stoichiometry N in assay [2] and in assay [3] was under 3 in each case.
